# Measurements from PMC11088064 (BMC Immunology, 2024).
# How the values were obtained:
# hPD-1 on CHO cells [1] = target: T1, hPD-1 on CHO cells (human, UniProt Q15116); experiment: cell-based or functional assay
# [2] = target: T2, hPD-1 L128A on HEK293T cells (Homo sapiens, UniProt Q15116, L128A); experiment: flow cytometry on cells; shotgun mutagenesis alanine scan (Integral Molecular): hPD-1 wild type or mutants transiently expressed in HEK293 T cells, incubated with antibody, Alexa Fluor 488 secondary antibody; non-blocking control anti-PD-1 as reference; details: one partner purified
# T2 construct: programmed cell death 1 (PD-1), human, alanine mutant of the shotgun mutagenesis library; source: HEK293 T cells, transiently transfected, on cells
# T2 sequence (Q15116 25-288 L128A): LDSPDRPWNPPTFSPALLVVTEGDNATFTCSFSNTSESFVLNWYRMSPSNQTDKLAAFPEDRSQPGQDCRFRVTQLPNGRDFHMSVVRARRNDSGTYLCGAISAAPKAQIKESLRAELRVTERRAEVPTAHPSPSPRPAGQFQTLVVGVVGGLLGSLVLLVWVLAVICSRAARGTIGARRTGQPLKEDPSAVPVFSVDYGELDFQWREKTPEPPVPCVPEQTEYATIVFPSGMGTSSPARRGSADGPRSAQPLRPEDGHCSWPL
# [3] = target: T3, hPD-1 P130A on HEK293T cells (Homo sapiens, UniProt Q15116, P130A); experiment: as above; details: one partner purified
# T3 construct: programmed cell death 1 (PD-1), human, alanine mutant of the shotgun mutagenesis library; source: HEK293 T cells, transiently transfected, on cells
# T3 sequence (Q15116 25-288 P130A): as the sequence (Q15116 25-288 L128A) above, with A104L, P106A counted along it
# [4] = target: T4, hPD-1 I126A on HEK293T cells (Homo sapiens, UniProt Q15116, I126A); experiment: as above; details: one partner purified
# T4 construct: programmed cell death 1 (PD-1), human, alanine mutant of the shotgun mutagenesis library; source: HEK293 T cells, transiently transfected, on cells
# T4 sequence (Q15116 25-288 I126A): as the sequence (Q15116 25-288 L128A) above, with I102A, A104L counted along it
# mPD-1 on CHO cells = target: T5, mPD-1 on CHO cells (mouse, UniProt Q02242); experiment: flow cytometry on cells; competition: PD-1-expressing CHO-S cells with serial dilutions of anti-PD-1 at 4 °C for 15 min, then human Fc (IgG1)-labeled PD-L1 at 4 °C for 1 h in PBS/2% BSA; bound PD-L1 detected with PE anti-human IgG1/3; details: one partner purified
# T5 construct: also called mPD-1-expressing CHO cells; cellular mPD-1; source: CHO cells, stably transfected (pCMV3 vector), on cells
# T5 sequence (Q02242 25-288): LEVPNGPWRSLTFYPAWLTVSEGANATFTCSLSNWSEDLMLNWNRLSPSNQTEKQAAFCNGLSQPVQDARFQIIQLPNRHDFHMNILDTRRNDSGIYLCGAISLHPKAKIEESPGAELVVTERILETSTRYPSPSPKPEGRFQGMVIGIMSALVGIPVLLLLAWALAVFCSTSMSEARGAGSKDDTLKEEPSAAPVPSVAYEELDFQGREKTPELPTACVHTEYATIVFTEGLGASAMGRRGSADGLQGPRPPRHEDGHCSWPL
# hPD-1 on CHO cells [5] = target: T1, hPD-1 on CHO cells; experiment: as above; details: one partner purified
# T1 sequence (Q15116 25-288): as the sequence (Q15116 25-288 L128A) above, with A104L counted along it
binder,measurement,setting,value
"GNUV201 (antibody, V domains shown, humanized VH: CDRs of mouse clone 1G1 grafted into human IgG framework, with select point mutations; human IgG4 heavy chain constant region, hinge-stabilised S228P variant; IgG4 (S228P); the data statement says that datasets are available on request; also called humanized GNUV201; anti-PD-1; copies: 2 + 2) VH: QVQLVQSGAEVKKPGASVKVSCKASGYTFTGYWMHWVRQAPGQGLEWIGMIHPNSDTTTYNEKFKNRVTMTRDTSISTAYMELSRLRSDDTAVYYCAGTDQAAWFAFWGQGTTVTVSS VL: DIVMTQTPLSLSVTPGQPASISCRSSQNIVHSQGDTYLEWYLQKPGQSPQLLIYKVSKRFSGVPDRFSGSGSGTDFTLKISRVEAEDVGVYYCFQGSHVPWTFGGGTKVEIK",reporter assay: luciferase (NFAT-RE) in Jurkat T cells expressing hPD-1 with human PD-L1 aAPC/CHO-K1 cells; IC50 of blocking hPD-1/hPD-L1,hPD-1 on CHO cells [1],6.3 nM
same,percent of WT PD-1 control binding,[2],38.5%
same,percent of WT PD-1 control binding,[3],19.5%
same,percent of WT PD-1 control binding,[4],46.6%
same,IC50,mPD-1 on CHO cells,6.7 nM
same,IC50,hPD-1 on CHO cells [5],9.9 nM
